Source: PMC3386906 (2012)

T1: ChemR23 (Mus musculus, UniProt P97468)
T1 chain: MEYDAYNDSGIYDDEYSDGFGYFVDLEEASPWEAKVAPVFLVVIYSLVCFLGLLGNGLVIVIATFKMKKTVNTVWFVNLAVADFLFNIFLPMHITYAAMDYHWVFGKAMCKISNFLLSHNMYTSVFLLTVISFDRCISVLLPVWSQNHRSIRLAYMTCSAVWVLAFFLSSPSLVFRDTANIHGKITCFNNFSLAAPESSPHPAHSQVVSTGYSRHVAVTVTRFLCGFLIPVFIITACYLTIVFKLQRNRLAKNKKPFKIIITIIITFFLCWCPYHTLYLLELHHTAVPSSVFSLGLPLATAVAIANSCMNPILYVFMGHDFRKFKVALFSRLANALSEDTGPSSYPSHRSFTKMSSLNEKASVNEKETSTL

T2: ChemR23 (Homo sapiens, UniProt Q99788)
T2 chain: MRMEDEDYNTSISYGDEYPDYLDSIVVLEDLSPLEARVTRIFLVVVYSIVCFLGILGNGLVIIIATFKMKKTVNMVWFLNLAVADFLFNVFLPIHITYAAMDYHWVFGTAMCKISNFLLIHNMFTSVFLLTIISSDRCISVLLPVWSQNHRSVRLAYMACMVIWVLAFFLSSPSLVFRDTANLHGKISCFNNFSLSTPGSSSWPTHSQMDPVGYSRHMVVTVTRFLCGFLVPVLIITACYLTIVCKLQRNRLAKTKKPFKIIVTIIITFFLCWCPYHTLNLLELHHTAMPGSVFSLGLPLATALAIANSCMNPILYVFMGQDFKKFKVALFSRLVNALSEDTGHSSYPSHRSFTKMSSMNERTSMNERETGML


Assays:
ChemR23 [1] = target: T1, ChemR23; assay: radioligand saturation binding (CHO-K1 cells)
ChemR23 [2] = target: T1, ChemR23; assay: radioligand saturation binding (125I-chemerin, peritoneal macrophages)
ChemR23 [3] = target: T2, ChemR23; assay: radioligand

Kd (ChemR23 [1]) [nM]	Kd (ChemR23 [2]) [nM]	Kd (ChemR23 [3]) [nM]	Binder
1.1	~1.2	–	chemerin (protein, 125I-labelled chemerin) ELTEAQRRGLQVALEEFHKHPPVQWAFQETSVESAVDTPFPAGIFVRLEFKLQQTSCRKRDWKKPECKVRPNGRKRKCLACIKLGSEDKVLGRLVHCPIETQVLREAEEHQETQCLRVQRAGEDPHSFYFPGQFAFS
–	–	0.9	chemerin (protein) ELTEAQRRGLQVALEEFHKHPPVQWAFQETSVESAVDTPFPAGIFVRLEFKLQQTSCRKRDWKKPECKVRPNGRKRKCLACIKLGSEDKVLGRLVHCPIETQVLREAEEHQETQCLRVQRAGEDPHSFYFPGQFAFS
